From patent publication US20230265151A1, “GIP/GLP1 CO-AGONIST COMPOUNDS” (priority 2020, published 2023)
*1 amine or outer side, *2 acyl side, *3 side chain or, on linkers, in order; H or OH if unused. Where no end group is shown, it is not given here. Side-chain parts run from the residue outwards. [ ]: non-standard residue; d: D form. The star is where a group is joined. αMePhe(2-F) = C[C@](N)(Cc1ccccc1F)C(=O)O; γGlu = O=C(O)[C@H](CCC(=O)[*:2])N[*:1]; C14 diacid = O=C(O)CCCCCCCCCCCCC(=O)*; αMeY = C[C@](N)(Cc1ccc(O)cc1)C(=O)O; αMeL = CC(C)C[C@](C)(N)C(=O)O; Nle = CCCC[C@H](N)C(=O)O; Orn = NCCC[C@H](N)C(=O)O; AEEA = NCCOCCOCC(=O)O; Aib = CC(C)(N)C(=O)O

Tests used:
human GLP-1 receptor [1] = molecular target: human GLP-1 receptor (human, UniProt P43220 24-463); assay: cell-based or functional assay
human glucagon receptor [2] = molecular target: human glucagon receptor (human, UniProt P47871 26-477); assay: cell-based or functional assay
human GIP receptor [3] = molecular target: T1, human GIP receptor (human, UniProt P48546 22-466); assay: cell-based or functional assay
T1 sequence (looked up): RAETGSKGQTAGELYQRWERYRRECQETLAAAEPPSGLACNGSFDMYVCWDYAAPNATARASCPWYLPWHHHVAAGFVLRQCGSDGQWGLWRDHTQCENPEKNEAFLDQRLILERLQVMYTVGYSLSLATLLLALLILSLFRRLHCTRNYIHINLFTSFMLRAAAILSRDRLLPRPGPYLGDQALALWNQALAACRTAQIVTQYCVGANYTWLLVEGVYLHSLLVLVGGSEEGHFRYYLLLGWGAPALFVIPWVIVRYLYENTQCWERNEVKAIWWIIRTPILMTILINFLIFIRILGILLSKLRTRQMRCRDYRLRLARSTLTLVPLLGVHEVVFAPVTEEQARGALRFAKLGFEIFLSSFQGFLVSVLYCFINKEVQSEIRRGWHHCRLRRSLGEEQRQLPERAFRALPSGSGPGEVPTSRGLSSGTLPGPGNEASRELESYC

human GIP receptor [4] = molecular target: T2, human GIP receptor (human, UniProt P48546 22-466); assay: SPA competition vs [125I]-GIP, hGIPR membranes
T2 construct: whole, on cells; also called hGIPR; human glucose-dependent insulinotropic polypeptide receptor
T2 sequence (looked up): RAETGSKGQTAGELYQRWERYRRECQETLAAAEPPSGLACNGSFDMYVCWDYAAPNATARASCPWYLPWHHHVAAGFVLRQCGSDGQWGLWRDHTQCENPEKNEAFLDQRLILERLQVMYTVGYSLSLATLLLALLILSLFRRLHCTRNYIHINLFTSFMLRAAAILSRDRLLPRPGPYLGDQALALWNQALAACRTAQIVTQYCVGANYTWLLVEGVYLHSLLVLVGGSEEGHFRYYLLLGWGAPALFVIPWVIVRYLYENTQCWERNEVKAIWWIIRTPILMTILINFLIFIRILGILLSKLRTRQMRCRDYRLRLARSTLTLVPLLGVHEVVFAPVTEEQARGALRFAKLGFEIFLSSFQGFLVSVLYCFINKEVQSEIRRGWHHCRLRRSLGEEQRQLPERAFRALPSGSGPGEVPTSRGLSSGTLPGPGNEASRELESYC

human GLP-1 receptor [5] = molecular target: T3, human GLP-1 receptor (human, UniProt P43220 24-463); assay: SPA competition vs [125I]-GLP-1, hGLP-1R membranes
T3 construct: whole, on cells; also called hGLP-1R; human glucagon-like peptide-1 receptor
In short: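 Kᵢ values are geometric means (SEM) over replicates run on separate days, derived from IC₅₀ of four-parameter curve fits. Buffer: HEPES 25 mM pH 7.4 with CaCl₂ 2.5 mM, MgCl₂ 1 mM, bacitracin 0.1%, TWEEN-20 0.003%, EDTA-free protease inhibitors.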

human glucagon receptor [6] = molecular target: T4, human glucagon receptor (human, UniProt P47871 26-477); assay: SPA competition vs [125I]-Gcg, hGcgR membranes
T4 construct: whole, on cells; also called hGCGR; hGcgR
T4 sequence (P47871 26-477): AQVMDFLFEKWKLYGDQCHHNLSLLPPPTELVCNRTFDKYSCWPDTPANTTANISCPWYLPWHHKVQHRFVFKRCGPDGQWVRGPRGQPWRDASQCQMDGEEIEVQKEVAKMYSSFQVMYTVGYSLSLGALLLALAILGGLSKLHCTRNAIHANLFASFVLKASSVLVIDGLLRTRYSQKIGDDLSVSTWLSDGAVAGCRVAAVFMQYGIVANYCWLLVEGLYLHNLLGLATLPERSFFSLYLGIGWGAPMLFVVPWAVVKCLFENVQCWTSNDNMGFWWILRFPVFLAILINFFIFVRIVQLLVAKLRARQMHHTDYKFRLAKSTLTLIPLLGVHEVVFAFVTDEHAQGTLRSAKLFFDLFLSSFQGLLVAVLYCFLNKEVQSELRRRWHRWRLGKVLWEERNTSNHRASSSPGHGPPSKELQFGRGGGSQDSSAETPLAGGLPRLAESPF

Binder	cAMP EC50 (1.0% HSA) (human GLP-1 receptor [1])	cAMP EC50 (1.0% HSA) (human glucagon receptor [2])	cAMP EC50 (1.0% HSA) (human GIP receptor [3])	Ki (human GIP receptor [4])	Ki (human GLP-1 receptor [5])	Ki (human glucagon receptor [6])	cAMP Emax (1.0% HSA) (human GIP receptor [3])	cAMP Emax (1.0% HSA) (human GLP-1 receptor [1])
YXEGTXTSDXSIXLDXIAQXKFIXXLIKGGPSSGAPPPS (Y-Aib-EGT-αMeF(2F)-TSD-2Nal-SI-αMeL-LD-Orn-IAQ-Aib-K((2-[2-(2-Amino-ethoxy)-ethoxy]-acetyl)2-(γ-Glu)-CO-(CH2)12-CO2H)Fl-(D-Glu)-αMeY-LIK((2-[2-(2-Amino-ethoxy)-ethoxy]-acetyl)2-(γ-Glu)-CO-(CH2)12-CO2H)GGPSSGAPPPS-NH2) [Example 253]	192 nM	> 9950 nM	21.7 nM	–	–	–	–	–
YXEGTXTSDXSIXLDXKAQXEFIXXLIKGGPSSGAPPPS (Y-Aib-EGT-αMeF(2F)-TSD-4Pal-SI-αMeL-LD-Orn-K((2-[2-(2-Amino-ethoxy)-ethoxy]-acetyl)3-(γ-Glu)-CO-(CH2)12-CO2H)AQ-Aib-EFI-(D-Glu)-αMeY-LIK((2-[2-(2-Amino-ethoxy)-ethoxy]-acetyl)3-(γ-Glu)-CO-(CH2)12-CO2H)GGPSSGAPPPS-NH2) [Example 224]	71 nM	> 9950 nM	2.92 nM	–	–	–	–	–
YXEGTXTSDXSIXLDXKAQXEFIXXLIEGGKSSGAPPPS (Aib2, αMeF(2F)6, 4Pal10, αMeL13, Orn16, K17(Z1), Aib20, D-Glu24, αMeY25, K31(Z1), C-term NH2; Z1=AEEA-(γ-Glu)-CO-(CH2)10-CH3)	–	–	–	0.036 nM	0.286 nM	17.6 nM	–	–
YXEGTXTSDXSIXLDXKAQXEFIXXLIEGGKSSGAPPPS (Aib2, αMeF(2F)6, 4Pal10, αMeL13, Orn16, K17(Z1), Aib20, D-Glu24, αMeY25, K31(Z1), C-term NH2; Z1=AEEA-(γ-Glu)-(10-(4-carboxyphenoxy)decanoyl))	–	–	–	0.0575 nM	0.638 nM	213 nM	–	–
YXEGTXTSDXSIXLDXKAQXEFIXXLIKGGPSSGAPPPS (Y-Aib-EGT-αMeF(2F)-TSD-2Nal-SI-αMeL-LD-Orn-K((2-[2-(2-Amino-ethoxy)-ethoxy]-acetyl)2-(γ-Glu)-CO-(CH2)12-CO2H)AQ-Aib-EFI-(D-Glu)-αMeY-LIK((2-[2-(2-Amino-ethoxy)-ethoxy]-acetyl)2-(γ-Glu)-CO-(CH2)12-CO2H)GGPSSGAPPPS-NH2) [Example 250]	63 nM	> 9950 nM	38.8 nM	–	–	–	–	–
YXEGTXTSDKSIXLDXKAQXEFIXXLIEGGPSSGAPPPS (Aib2, αMeF(2F)6, K10(Z1), αMeL13, Orn16, K17(Z1), Aib20, D-Glu24, αMeY25, C-term NH2; Z1=AEEA2-(γ-Glu)-CO-(CH2)14-CH3)	–	–	–	0.0505 nM	0.412 nM	0.923 nM	–	–
YXEGTXTSDXSIXLDXKAQXEFIXXLIEGGKSSGAPPPS (Aib2, αMeF(2F)6, 4Pal10, αMeL13, Orn16, K17(Z1), Aib20, D-Glu24, αMeY25, K31(Z1), C-term NH2; Z1=AEEA-(γ-Glu)-CO-(CH2)14-CH3)	–	–	–	0.0575 nM	0.691 nM	0.987 nM	–	–
YXEGTXTSDXSIXLDXKAQXEFIXXLIKGGPSSGAPPPS (Y-Aib-EGT-αMeF(2F)-TSD-2Nal-SI-αMeL-LD-Orn-K((2-[2-(2-Amino-ethoxy)-ethoxy]-acetyl)2-CO-(CH2)12-CO2H)AQ-Aib-EFI-(D-Glu)-αMeY-LIK((2-[2-(2-Amino-ethoxy)-ethoxy]-acetyl)2-CO-(CH2)12-CO2H)GGPSSGAPPPS-NH2 …) [Example 256]	12.6 nM	> 9950 nM	1.5 nM	–	–	–	75.3%	–
Y[Aib]EGT[αMePhe(2-F)]TSD[Nle]SI[αMeL]LD[Orn]QAQ[Aib][Orn]FIK([AEEA-AEEA-γGlu-C14 diacid])[αMeY]LIK([AEEA-AEEA-γGlu-C14 diacid])GGPSSGAPPPS-NH2	–	–	–	0.0288 nM	0.27 nM	37.8 nM	–	–
YXEGTXTSDXSIXLDXKAQXEFIXXLIEGGPSSGAPPPSK (Y-Aib-EGT-αMeF(2F)-TSD-4Pal-SI-αMeL-LD-Orn-K((2-[2-(2-Amino-ethoxy)-ethoxy]-acetyl)2-CO-(CH2)12-CO2H)AQ-Aib-EFI-(D-Glu)-αMeY-LIEGGPSSGAPPPSK((2-[2-(2-Amino-ethoxy)-ethoxy]-acetyl)2-CO-(CH2)12-CO2H)-NH2) [Example 221]	17.9 nM	> 9950 nM	0.838 nM	–	–	–	67.4%	–
YXEGTXTSDXSIXLDXIAQXKFIXXLIEGGPSSGAPPPSK (Y-Aib-EGT-αMeF(2F)-TSD-2Nal-SI-αMeL-LD-Orn-IAQ-Aib-K((2-[2-(2-Amino-ethoxy)-ethoxy]-acetyl)2-(γ-Glu)-CO-(CH2)12-CO2H)FI-(D-Glu)-αMeY-LIEGGPSSGAPPPSK((2-[2-(2-Amino-ethoxy)-ethoxyl-acetyl)2-(γ-Glu)-CO-(CH2)12-CO2H)-NH2) [Example 254]	211 nM	> 9950 nM	16.8 nM	–	–	–	68.5%	122%
YXEGTXTSDXSIXLDXKAQXEFIXXLIEGGPSSGAPPPSK (Aib2, αMeF(2F)6, 4Pal10, αMeL13, Orn16, K17(Z1), Aib20, D-Glu24, αMeY25, K40(Z1), C-term NH2; Z1=AEEA2-(γ-Glu)-CO-(CH2)14-CH3)	–	–	–	0.0293 nM	0.483 nM	0.283 nM	–	–
YXEGTXTSDXSIXLDXKAQXEFIXXLIEGGPSSGAPPPSK (Y-Aib-EGT-αMeF(2F)-TSD-2Nal-SI-αMeL-LD-Orn-K((2-[2-(2-Amino-ethoxy)-ethoxy]-acetyl)2-(γ-Glu)-CO-(CH2)12-CO2H)AQ-Aib-EFI-(D-Glu)-αMeY-LIEGGPSSGAPPPSK((2-[2-(2-Amino-ethoxy)-ethoxyl-acetyl)2-(γ-Glu)-CO-(CH2)12-CO2H)-NH2) [Example 251]	51 nM	> 9950 nM	14.3 nM	–	–	–	71.2%	–
YXEGTXTSDXSIXLDXKAQXEFIXXLIEGGPSSGAPPPSK (Y-Aib-EGT-αMeF(2F)-TSD-4Pal-SI-αMeL-LD-Orn-K((2-[2-(2-Amino-ethoxy)-ethoxy]-acetyl)3-(γ-Glu)-CO-(CH2)12-CO2H)AQ-Aib-EFI-(D-Glu)-αMeY-LIEGGPSSGAPPPSK((2-[2-(2-Amino-ethoxy)-ethoxy]-acetyl)3-(γ-Glu)-CO-(CH2)12-CO2H)-NH2) [Example 225]	51.6 nM	> 9950 nM	1.81 nM	–	–	–	67.5%	–
YXEGTXTSDXSIXLDXIAQXKFIXXLIEGGPSSGAPPPSK (Y-Aib-EGT-αMeF(2F)-TSD-4Pal-SI-αMeL-LD-Orn-IAQ-Aib-K((2-[2-(2-Amino-ethoxy)-ethoxy]-acetyl)3-(γ-Glu)-CO-(CH2)12-CO2H)FI-(D-Glu)-αMeY-LIEGGPSSGAPPPSK((2-[2-(2-Amino-ethoxy)-ethoxy]-acetyl)3-(γ-Glu)-CO-(CH2)12-CO2H)-NH2) [Example 228]	42 nM	> 9950 nM	3.37 nM	–	–	–	83.3%	119%
YXEGTXTSDXSIXLDXKAQXEFIXXLIEGGPSSGAPPPSK (Y-Aib-EGT-αMeF(2F)-TSD-2Nal-SI-αMeL-LD-Orn-K((2-[2-(2-Amino-ethoxy)-ethoxy]-acetyl)2-CO-(CH2)12-CO2H)AQ-Aib-EFI-(D-Glu)-αMeY-LIEGGPSSGAPPPSK((2-[2-(2-Amino-ethoxy)-ethoxy]-acetyl)2-CO-(CH2)12-CO2H)-NH2) [Example 257]	46.3 nM	> 9950 nM	5.61 nM	–	–	–	72.2%	–
YXEGTXTSDXSIXLDXIAQXKFIXXLIEGGPSSGAPPPSK (Y-Aib-EGT-αMeF(2F)-TSD-2Nal-SI-αMeL-LD-Orn-IAQ-Aib-K((2-[2-(2-Amino-ethoxy)-ethoxy]-acetyl)2-CO-(CH2)12-CO2H)Fl-(D-Glu)-αMeY-LIEGGPSSGAPPPSK((2-[2-(2-Amino-ethoxy)-ethoxy]-acetyl)2-CO-(CH2)12-CO2H)-NH2) [Example 258]	41.5 nM	> 9950 nM	5.28 nM	–	–	–	84.3%	–
